Results on four sequences are retold here after US20240425885.

Common to all, as to test: cleavage_in_vitro
For series [1], the system named is T1, OMNI-125 (metagenomic, unknown).
T1 sequence: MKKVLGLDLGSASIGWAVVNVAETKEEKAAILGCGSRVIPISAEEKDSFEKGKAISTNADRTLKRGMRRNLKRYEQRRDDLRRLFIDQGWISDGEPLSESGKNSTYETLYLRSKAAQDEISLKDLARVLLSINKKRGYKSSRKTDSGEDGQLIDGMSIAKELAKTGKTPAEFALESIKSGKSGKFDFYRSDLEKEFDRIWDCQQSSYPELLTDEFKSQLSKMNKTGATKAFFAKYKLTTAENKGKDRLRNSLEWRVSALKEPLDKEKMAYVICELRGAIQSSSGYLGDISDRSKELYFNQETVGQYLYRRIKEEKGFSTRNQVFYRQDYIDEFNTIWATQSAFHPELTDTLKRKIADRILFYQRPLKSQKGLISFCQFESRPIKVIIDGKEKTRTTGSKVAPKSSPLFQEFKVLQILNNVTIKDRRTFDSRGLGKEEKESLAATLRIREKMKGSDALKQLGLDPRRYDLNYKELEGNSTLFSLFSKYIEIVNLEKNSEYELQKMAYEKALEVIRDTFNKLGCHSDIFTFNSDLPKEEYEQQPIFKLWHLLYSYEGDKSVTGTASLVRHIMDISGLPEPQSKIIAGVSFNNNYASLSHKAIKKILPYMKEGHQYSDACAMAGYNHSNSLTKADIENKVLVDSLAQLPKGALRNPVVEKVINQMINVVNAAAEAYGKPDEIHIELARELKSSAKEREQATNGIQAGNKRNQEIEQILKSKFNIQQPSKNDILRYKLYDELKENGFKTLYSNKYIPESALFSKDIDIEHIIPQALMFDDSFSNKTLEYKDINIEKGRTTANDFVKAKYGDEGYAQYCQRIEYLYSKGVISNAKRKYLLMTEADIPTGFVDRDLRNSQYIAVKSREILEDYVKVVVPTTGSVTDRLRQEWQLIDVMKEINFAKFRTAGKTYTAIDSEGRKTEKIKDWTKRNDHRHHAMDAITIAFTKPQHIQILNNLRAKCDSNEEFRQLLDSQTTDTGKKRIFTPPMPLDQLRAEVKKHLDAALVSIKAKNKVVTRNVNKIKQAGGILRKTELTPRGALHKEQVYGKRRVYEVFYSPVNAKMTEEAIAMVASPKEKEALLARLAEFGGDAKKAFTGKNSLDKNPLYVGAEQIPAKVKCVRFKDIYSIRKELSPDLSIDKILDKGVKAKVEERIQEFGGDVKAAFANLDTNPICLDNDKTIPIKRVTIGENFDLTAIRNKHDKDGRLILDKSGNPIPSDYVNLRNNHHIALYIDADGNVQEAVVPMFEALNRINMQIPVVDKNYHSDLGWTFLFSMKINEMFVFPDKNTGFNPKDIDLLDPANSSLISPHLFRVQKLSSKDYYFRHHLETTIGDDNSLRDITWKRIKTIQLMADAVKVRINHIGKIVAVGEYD
Particulars: TXTL; PAM NARNCCYN

Series [2] deals with T2, OMNI-91 (metagenomic, unknown).
T2 sequence: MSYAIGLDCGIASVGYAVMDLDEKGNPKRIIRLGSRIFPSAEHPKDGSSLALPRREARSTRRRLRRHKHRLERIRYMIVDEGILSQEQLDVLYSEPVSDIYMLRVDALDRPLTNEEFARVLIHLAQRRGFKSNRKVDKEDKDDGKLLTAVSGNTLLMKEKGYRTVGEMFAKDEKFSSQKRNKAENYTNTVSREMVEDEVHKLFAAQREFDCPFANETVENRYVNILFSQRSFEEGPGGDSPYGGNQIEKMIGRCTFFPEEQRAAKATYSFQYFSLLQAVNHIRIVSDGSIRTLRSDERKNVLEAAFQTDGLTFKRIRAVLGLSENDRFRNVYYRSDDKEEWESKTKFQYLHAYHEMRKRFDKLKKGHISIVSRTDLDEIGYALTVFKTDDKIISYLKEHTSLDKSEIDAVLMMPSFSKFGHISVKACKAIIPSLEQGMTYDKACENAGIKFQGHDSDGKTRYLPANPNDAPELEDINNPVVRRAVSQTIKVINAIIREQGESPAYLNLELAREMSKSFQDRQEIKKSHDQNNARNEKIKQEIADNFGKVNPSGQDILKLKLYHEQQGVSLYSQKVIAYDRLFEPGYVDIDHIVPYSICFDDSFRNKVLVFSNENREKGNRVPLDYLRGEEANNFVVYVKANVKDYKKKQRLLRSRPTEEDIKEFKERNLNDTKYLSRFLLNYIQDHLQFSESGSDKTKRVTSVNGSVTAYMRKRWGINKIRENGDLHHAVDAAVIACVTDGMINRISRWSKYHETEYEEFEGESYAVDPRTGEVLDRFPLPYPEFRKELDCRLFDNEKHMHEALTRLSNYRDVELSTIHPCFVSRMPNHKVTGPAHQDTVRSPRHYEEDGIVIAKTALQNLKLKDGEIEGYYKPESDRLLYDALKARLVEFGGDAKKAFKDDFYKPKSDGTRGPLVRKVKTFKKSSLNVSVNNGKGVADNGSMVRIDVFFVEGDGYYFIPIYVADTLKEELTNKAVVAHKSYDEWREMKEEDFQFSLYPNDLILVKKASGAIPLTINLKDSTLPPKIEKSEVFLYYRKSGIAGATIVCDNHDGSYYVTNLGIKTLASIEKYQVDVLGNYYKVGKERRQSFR
Particulars: TXTL; PAM NNGNRTNN

For series [3], the system named is T3, OMNI-126 (metagenomic, unknown).
T3 sequence: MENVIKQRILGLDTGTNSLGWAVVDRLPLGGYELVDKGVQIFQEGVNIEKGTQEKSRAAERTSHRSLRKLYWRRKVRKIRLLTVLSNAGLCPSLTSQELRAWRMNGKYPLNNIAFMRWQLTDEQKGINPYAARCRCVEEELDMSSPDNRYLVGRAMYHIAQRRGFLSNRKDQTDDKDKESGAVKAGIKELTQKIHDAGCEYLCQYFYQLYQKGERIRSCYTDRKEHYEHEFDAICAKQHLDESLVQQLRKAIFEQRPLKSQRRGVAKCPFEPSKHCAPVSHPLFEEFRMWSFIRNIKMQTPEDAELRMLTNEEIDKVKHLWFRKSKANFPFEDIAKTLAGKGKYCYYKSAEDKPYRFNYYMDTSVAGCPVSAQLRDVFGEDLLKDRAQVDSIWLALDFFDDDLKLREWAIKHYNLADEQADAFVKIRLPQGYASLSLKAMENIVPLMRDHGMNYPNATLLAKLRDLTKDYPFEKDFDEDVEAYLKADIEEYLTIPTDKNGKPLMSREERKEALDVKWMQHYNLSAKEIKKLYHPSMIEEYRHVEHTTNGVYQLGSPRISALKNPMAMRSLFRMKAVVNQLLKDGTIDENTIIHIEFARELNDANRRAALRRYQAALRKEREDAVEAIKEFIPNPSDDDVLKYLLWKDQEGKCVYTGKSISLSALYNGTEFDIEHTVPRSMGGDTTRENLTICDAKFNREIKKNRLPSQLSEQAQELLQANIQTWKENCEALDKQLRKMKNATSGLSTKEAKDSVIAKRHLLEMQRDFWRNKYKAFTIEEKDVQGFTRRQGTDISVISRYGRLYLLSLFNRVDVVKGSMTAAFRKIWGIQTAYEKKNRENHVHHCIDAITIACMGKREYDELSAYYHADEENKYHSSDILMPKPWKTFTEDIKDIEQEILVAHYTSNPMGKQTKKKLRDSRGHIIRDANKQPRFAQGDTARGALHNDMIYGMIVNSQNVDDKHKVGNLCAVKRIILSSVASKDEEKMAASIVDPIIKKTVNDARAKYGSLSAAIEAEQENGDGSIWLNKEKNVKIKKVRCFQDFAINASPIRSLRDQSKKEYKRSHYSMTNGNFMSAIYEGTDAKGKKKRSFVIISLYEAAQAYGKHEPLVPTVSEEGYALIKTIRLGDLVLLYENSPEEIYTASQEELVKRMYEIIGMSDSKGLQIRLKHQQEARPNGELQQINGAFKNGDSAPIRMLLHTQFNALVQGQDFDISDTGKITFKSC
As to conditions: TXTL; PAM NNNNAARN

In series [4] the test system is T4, OMNI-123 (metagenomic, unknown).
T4 sequence: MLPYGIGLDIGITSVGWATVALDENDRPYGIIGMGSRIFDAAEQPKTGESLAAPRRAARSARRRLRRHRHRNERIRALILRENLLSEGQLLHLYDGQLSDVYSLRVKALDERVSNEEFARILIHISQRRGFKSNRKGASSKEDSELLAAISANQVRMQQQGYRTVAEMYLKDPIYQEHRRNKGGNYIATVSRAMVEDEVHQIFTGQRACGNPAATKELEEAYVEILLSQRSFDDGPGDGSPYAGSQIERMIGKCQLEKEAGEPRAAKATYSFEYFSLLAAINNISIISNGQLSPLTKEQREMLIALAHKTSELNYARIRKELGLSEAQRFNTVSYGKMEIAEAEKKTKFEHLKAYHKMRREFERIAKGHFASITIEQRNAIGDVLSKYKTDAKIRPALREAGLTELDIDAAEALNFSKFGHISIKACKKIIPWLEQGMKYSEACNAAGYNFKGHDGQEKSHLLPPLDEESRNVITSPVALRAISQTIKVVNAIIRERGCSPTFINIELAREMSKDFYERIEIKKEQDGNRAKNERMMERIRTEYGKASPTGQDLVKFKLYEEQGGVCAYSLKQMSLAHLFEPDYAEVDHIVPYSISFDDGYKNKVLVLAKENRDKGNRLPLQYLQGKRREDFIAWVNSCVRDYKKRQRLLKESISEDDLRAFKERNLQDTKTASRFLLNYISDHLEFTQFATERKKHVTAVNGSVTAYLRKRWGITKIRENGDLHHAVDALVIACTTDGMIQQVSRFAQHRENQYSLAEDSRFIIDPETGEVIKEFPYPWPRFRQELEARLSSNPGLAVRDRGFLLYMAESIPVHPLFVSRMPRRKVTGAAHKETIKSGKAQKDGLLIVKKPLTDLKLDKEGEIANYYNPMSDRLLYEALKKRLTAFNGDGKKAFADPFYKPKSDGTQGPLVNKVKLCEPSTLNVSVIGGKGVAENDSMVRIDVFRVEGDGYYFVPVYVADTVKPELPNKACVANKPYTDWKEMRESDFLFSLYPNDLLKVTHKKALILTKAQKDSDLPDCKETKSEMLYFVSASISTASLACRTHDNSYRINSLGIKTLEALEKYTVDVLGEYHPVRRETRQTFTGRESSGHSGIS
As to conditions: TXTL; PAM NNNSGYAA

“GGAAGAGCAGAGCCUUGGUCUCGUUGUGAAUGGCUUUCGAAAUUGAAGCCAUUCACAAUAAGGAUUAUUCCGUUGUGAAAACAUUAAGAGCGGGUCGUGAGACUCGCUCUUCUGUGUUUAUUUUUU / GGAAGAGCAGAGCCTTGGTCTCNNNNNNNN / NNNNNNNNGAGACCAAGGCTCTGCTCTTCC [T2 sgRNA 27 V1 ; T2 protospacer + 8N PAM library (pbPOS T2)]”: the activity (1-depletion score) in series [1] amounted to 0.95.

The sequence “GGAAGAGCAGAGCCUUGGUCUCGUUGUAGUCCCCUCGUAGUGAAAACUAUCAGGUCACUACAAUAAAGUAGAACACUGAAAAGCUCUGACGGCCCACUUUCCGUGGGUCGUCAUCUUUUUU / GGAAGAGCAGAGCCTTGGTCTCNNNNNNNN / NNNNNNNNGAGACCAAGGCTCTGCTCTTCC [T2 sgRNA 2 V1 ; T2 protospacer + 8N PAM library (pbPOS T2)]” displayed an activity (1-depletion score) in series [2] of 0.96. “GGAAGAGCAGAGCCUUGGUCUCGUUGUGGCUUGUUGAAGAAGAAAUUCUUCAACUUGUCACAAUAAGGCCCUUAAGGCCGAAGGUUGAAAAACCUAUGGCUCUACUUCGGUGGAGCCUUUUUU / GGAAGAGCAGAGCCTTGGTCTCNNNNNNNN / NNNNNNNNGAGACCAAGGCTCTGCTCTTCC [T2 sgRNA 28 V1 ; T2 protospacer + 8N PAM library (pbPOS T2)]” yielded an activity (1-depletion score) in series [3] of 0.64.

As to “GGAAGAGCAGAGCCUUGGUCUCGUUAUAGUUCCCUGAUAGUGAAAACUAUGAGGUUGCUAUAAUAAGGUAGUAAACCGCAGAGCUCUAACGCCUCACAUUUGUGGGGCGUUAUCUCUUUUUUU / GGAAGAGCAGAGCCTTGGTCTCNNNNNNNN / NNNNNNNNGAGACCAAGGCTCTGCTCTTCC [T2 sgRNA 26 V1 ; T2 protospacer + 8N PAM library (pbPOS T2)]”, the activity (1-depletion score) in series [4] was found to be 0.95.
